This assay deals with T1, FcγRI (UniProt P12314 16-288).
T1 construct: also called CD64
Nature of the assay: SPR (Biacore T200), His-tagged target captured on anti-His chip, antibody as analyte. On the technique in general: Surface plasmon resonance follows binding to a sensor surface in real time, without labels.

T1 sequence (P12314 16-288 limits assumed): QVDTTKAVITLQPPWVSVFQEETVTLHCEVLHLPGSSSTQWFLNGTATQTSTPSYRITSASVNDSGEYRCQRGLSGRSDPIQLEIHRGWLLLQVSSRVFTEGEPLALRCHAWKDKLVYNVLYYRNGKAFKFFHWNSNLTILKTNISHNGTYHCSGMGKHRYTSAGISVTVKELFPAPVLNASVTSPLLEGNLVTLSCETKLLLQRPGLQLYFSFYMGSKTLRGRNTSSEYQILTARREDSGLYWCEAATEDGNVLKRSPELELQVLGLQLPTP

B1: X构型Rituximab抗体 (antibody, human IgG1, kappa)
heavy: not shown
light: QIVLSQSPAILSASPGEKVTMTCRASSSVSYIHWFQQKPGSSPKPWIYATSNLASGVPVRFSGSGSGTSYSLTISRVEAEDAATYYCQQWTSNPPTFGGGTKLEIKRTVAAPSVFIFPPSDEQLKSGTASVVCLLNNFYPREAKVQWKVDNALQSGNSQESVTEQDSKDSTYSLSSTLTLSKADYEKHKVYACEVTHQGLSSPVTKSFNRGECGGGGSGGGGSGGGGSGGGGSGGGGSGGGGSVPPPPPCCHPRLSLHRPALEDLLLGSEANLTCTLTGLRDASGVTFTWTPSSGKSAVQGPPERDLCGCYSVSSVLPGCAEPWNHGKTFTCTAAYPESKTPLTATLSKSGNTFRPEVHLLPPPSEELALNELVTLTCLARGFSPKDVLVRWLQGSQELPREKYLTWASRQEPSQGTTTFAVTSILRVAAEDWKKGDTFSCMVGHEALPLAFTQKTIDRLAGK
notes: also called X构型抗体; Rituximab X-body
In the case of B1, the binding result is listed as “binds”.
